# Columns and labels:
# [1] = biological target: GST-tagged p300 CH1 domain (residues 330–420) (UniProt Q09472); test: SEC; size exclusion chromatography of the GST fusion (protein characterization, Fig. S15)
# [2] = biological target: T1, HIF-1α786-826/p300 complex (Homo sapiens, UniProt Q09472); test: Competition ITC: CITED2 peptide titrated to preformed p300/HIF-1α786–826 complex; type: binding; conditions: titrated to HIF-1α786-826/p300 complex, fitted with fixed KD = 42.9 nM and ΔH = -25.8 kcal/mol for HIF-1α786-826, read-out: KD,app CITED2
# T1 construct: GST (N, cleaved yes); made in house; host or cells: p300: E. coli BL21 pLysS (pGEX-4T1-p300); HIF-1α peptide: chemical synthesis
# T1 sequence (Q09472 330-420, one chain of several): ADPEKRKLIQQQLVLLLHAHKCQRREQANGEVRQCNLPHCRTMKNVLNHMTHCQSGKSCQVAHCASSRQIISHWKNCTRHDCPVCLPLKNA
# Description: Figure S7Apparent KD fits for the competition ITC experiment using a competition interaction model. p300/ligand complexes were prepared by titrating the appropriate ligand first to p300 in the cell using 3-5 µM protein concentration, the titration stopped when it reached close to […]
# (Table S5) Then it was titrated with the competitor ligand using 30-60 µM concentration in the syringe, 5 or 10 uL injections with 180-240 s spacing. Background titrations were performed without p300 in the cell and subtracted from the measurements. Apparent KD,app and ΔH app values data were fitted to a competition model (Fig. S17) in SEDPHAT. Error bars represent the estimated integration errors.
# (1 picture or pasted object on this page, not shown here) […]
# instrument using 3-5 µM protein in the cell and 40-60 µM ligand in the syringe at 35°C, using 5 µl injections and 180 s spacing between injections, for 40 injections. […] Data were analysed using NITPIC3 and fitted using SEDPHAT4 to a single binding site model (fixed 1:1 stoichiometry), with baseline and incompetent protein fraction as adjustable parameters. 68 % confidence intervals for the fitted values were determined using the automatic confidence interval search implemented in SEDPHAT. […]
# [3] = biological target: T2, p300 CH1 domain (residues 330–420) (UniProt Q09472 330-420); test: ITC; competition: CITED2 peptides titrated into the preformed p300/HIF-1α 776–826 complex (1.2–1.6 equivalents of HIF-1α); 40 mM sodium phosphate, pH 7.5, 100 mM NaCl, 1 mM DTT, 35 °C; competitive binding model; apparent; conditions: both partners purified
# T2 construct: p300 CH1 domain, residues 330–420; The cleavage of GST is said for the anisotropy control; also called p300 with the GST tag cleaved; source: recombinantly expressed as a fusion protein with GST, GST tag cleaved
# T2 sequence (Q09472 330-420): as the sequence (Q09472 330-420, one chain of several) above
# [4] = biological target: T2, p300 CH1 domain (residues 330–420); test: ITC; peptide in the syringe, p300 in the cell (Fig. 4: 5 μM protein, 60 μM ligand); 40 mM sodium phosphate, pH 7.5, 100 mM NaCl, 1 mM DTT, 35 °C; single-site model, fixed 1:1 stoichiometry; conditions: both partners purified
# [5] = biological target: T3, GST-p300 (GST-tagged p300 CH1 domain, residues 330-420) (human, UniProt Q09472 330-420); test: fluorescence polarisation; fluorescence anisotropy competition; 5 nM FAM-HIF786-826 as tracer, two-fold dilution series of the competitor from 10 µM over 24 points; 25 mM Tris-HCl, 150 mM NaCl, 1 mM DTT, pH 7.4; concentration of p300 not stated; conditions: both partners purified
# T3 construct: human p300, CH1 domain (zinc finger, TAZ type 1), residues 330-420; For the fluorescence anisotropy experiments the GST cleavage step was omitted (D1:p17); source: E. coli (pGEX-6P-2 in Rosetta 2 or pGEX-4T-1 in BL21 pLysS), glutathione beads, eluted with glutathione, SEC
# T3 sequence (Q09472 330-420): as the sequence (Q09472 330-420, one chain of several) above
molecule,measurement,setting,value
GST-tagged p300 CH1 domain (residues 330–420) (from UniProt Q09472 330-420) (domain or fragment),stoichiometry N,[1],2
Ac-DEEVLMSLVIEMGLDRIKELPELWLGQNEFDFMTDF-NH2 [CITED2_224–259],Kd,[2],8.4 nM
"NVIDTDFIDEEVLMSLVIEMGLDRIKELPELWL (peptide, UniProt Q99967 216-248, looked up) [CITED2 216–248 (C-terminally truncated CITED2)]","KD,app (competition against the preformed p300/HIF-1α 776–826 complex)",[3],46.9 nM
same,Kd,[4],303 nM
"GPGSSMDESGLPQLTSYDCEVNAPIQGSRNLLQGEELLRALDQVN (four residues (Gly-Pro-Gly-Ser) left from the PreScission protease site; source: E. coli Rosetta 2, from inclusion bodies, His-trap, on-column PreScission cleavage, RP-HPLC; not shown: GFP, N-terminal, cleaved) [HIF-1α786-826 (expressed, His10-GFP cleaved off)]",IC50,[5],59 ± 6 nM
